# Reference: IntAct's records for PubMed 22184064
# B1: Cyclin-Y (Homo sapiens), Q8ND76-1 (parent)
# chain: MGNTTSCCVSSSPKLRRNAHSRLESYRPDTDLSREDTGCNLQHISDRENIDDLNMEFNPSDHPRASTIFLSKSQTDVREKRKSLFINHHPPGQIARKYSSCSTIFLDDSTVSQPNLKYTIKCVALAIYYHIKNRDPDGRMLLDIFDENLHPLSKSEVPPDYDKHNPEQKQIYRFVRTLFSAAQLTAECAIVTLVYLERLLTYAEIDICPANWKRIVLGAILLASKVWDDQAVWNVDYCQILKDITVEDMNELERQFLELLQFNINVPSSVYAKYYFDLRSLAEANNLSFPLEPLSRERAHKLEAISRLCEDKYKDLRRSARKRSASADNLTLPRWSPAIIS
# Variants of: B1
# Conditions: with cdk16_human CDK16, Q00536
# cdk16_human CDK16, Q00536, sequence (Q00536 whole entry): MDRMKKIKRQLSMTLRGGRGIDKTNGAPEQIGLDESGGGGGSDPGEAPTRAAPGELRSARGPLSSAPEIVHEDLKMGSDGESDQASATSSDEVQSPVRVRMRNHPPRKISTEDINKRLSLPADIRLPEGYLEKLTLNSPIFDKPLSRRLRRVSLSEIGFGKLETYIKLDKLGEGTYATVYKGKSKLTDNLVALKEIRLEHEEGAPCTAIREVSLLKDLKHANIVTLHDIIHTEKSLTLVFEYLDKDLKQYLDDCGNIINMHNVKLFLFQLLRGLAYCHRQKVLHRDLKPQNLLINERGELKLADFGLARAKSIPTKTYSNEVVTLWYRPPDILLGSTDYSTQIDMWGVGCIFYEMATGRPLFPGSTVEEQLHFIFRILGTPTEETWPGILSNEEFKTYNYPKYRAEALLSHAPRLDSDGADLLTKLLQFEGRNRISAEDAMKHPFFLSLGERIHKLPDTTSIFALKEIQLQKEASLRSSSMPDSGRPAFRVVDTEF
row,Variant,effect of a mutation on the interaction
1,L222A;S224A,decreasing interaction strength

# Variants of: B1
# Conditions: with cdk16_human CDK16, Q00536
# Remark: another data set of the same source
row,Variant,effect of a mutation on the interaction
1,L222A;S224A,disrupting interaction strength
